This note sets out measurements from patent US20220090089A1 (BROAD INSTITUTE, published 2022).

The assay addresses T1, CD4 on primary human peripheral blood mononuclear cells (PBMCs) (human, UniProt P01730 26-458).
T1 construct: whole, on cells
As to the kind of experiment: flow cytometry of phage-stained human PBMCs. In general terms: Flow cytometry measures light scatter and fluorescence of single cells or particles in a stream.

Method: Harvested cell lines or thawed PBMCs (see PHAGE-ATAC workflow for harvest and thawing protocol) were resuspended in FC buffer (see above) and incubated with respective phage nanobodies for 20 min on a rotator at 4° C. Cells were centrifuged and washed with cold FC buffer twice to remove unbound phages (centrifugation steps all were 350 g, 4 min, 4° C.). […] Cells were incubated for 10 min on ice, washed twice in FC buffer and resuspended in Sytox Blue (Thermo Scientific) containing FC buffer for live/dead discrimination according to manufacturer's instructions. […] Stained cells were analyzed using a CytoFLEX LX Flow Cytometer (Beckman Coulter) at the Broad Institute Flow Cytometry Facility. Flow cytometry data were analyzed using FlowJo software v.10.6.1.

B1: PAC-tagged anti-CD4 nanobody-displaying M13 phage (phagemid pDXinit-CD4Nb-PAC) (VHH)
VHH: EVQLVESGGGSVQPGGSLTLSCGTSGRTFNVMGWFRQAPGKEREFVAAVRWSSTGIYYTQYADSVKSRFTISRDNAKNTVYLEMNSLKPEDTAVYYCAADTYNSNPARWDGYDFWGQGTQVTVSS
notes: also called anti-CD4 pNb; anti-CD4 phage nanobody; not shown: M13 phage coat protein p3, from phagemid pDXinit; 12-amino acid PAC-tag
In the case of B1, the binding result was “binds”.
